Results as given in patent US20180021429A1, “ANTICANCER AGENTS OR ANTIMETASTATIC AGENTS USING FSTL1 AND COMBINATION DRUG THEREOF” (PHARMA FOODS INTERNATIONAL CO., LTD., priority 2015, published 2018).
Entries after “also recorded” stand apart in the source; their conditions may differ.

T1: FSTL1 (Homo sapiens, UniProt Q12841)
T1 sequence (Q12841 21-308): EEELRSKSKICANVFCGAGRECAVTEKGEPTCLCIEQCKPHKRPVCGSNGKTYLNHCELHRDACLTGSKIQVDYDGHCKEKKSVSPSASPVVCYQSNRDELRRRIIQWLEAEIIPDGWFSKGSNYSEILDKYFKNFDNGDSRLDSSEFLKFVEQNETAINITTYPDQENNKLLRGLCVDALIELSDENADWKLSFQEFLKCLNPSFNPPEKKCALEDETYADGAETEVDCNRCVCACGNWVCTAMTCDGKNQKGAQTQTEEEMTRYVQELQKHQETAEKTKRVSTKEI


Molecular target: T1, FSTL1
Test: Inhibition of activation of tumor cells by FSTL1, RANKL- and CCR2-positive cells in human pancreatic cancer cell line Panc1 (Examples 5, 7, 9, 10, 11)
Format: cell-based
Set-up: purchased R&D Systems, Inc. 1694-FN-050
Details: for inhibitory activity against the expansion of RANKL-positive cells and CCR2-positive cells: FSTL1 50 ng/mL
Method: It is known that tumor cells activated by stimulation with FSTL1 highly express molecule groups promoting bone metastasis and increase metastatic invasive capacity (Cancer Research 73: 6185, 2013). Thus, 2×10^7 cells/well of a human pancreatic cancer cell line Panc1 were suspended in 1 mL/well of D-MEM medium (GIBCO/Thermo Fisher Scientific Inc. Cat. No. C11885500BT) containing 10% fetal bovine serum, supplemented with 50 ng/mL (final concentration) of FSTL1 (R&D Systems, Inc.) and 10 μg/mL of the anti-FSTL1 antibody (#5-2, #5-8, #5-10, #5-43, #6-55, or #7-34) or its isotype mouse IgG (anti-DNP antibody) as a control antibody “Control”, and cultured under stimulation (6-well plate). 3 days thereafter, the number of cells was counted while the cells were stained with a PE-labeled anti-RANKL antibody (eBioscience Cat. No. 12-6619) and a PE-labeled anti-CCR2 antibody (R&D Systems, Inc. Cat. No. FAB151P) in order to examine the expression of markers indicating bone metastatic properties, and the contents of RANKL-positive cells and CCR2-positive cells were analyzed by flow cytometry using FACScan (Becton, Dickinson and Company) to calculate the numbers of cells per culture. […] Therefore, in Examples below, judgment was made with the number of cells as an index.
(§1) In the same way as in Example 5, a human pancreatic cancer cell line Panc1 was supplemented with 50 ng/mL (final concentration) of FSTL1 (R&D Systems, Inc.) and 10 μg/mL of the anti-FSTL1 antibody (the same clones as in Example 6) or a control antibody and cultured under stimulation. 3 days thereafter, the number of cells was counted while the cells were stained with a PE-labeled anti-RANKL antibody and a PE-labeled anti-CCR2 antibody, and the contents of RANKL-positive cells and CCR2-positive cells were analyzed by flow cytometry using FACScan (Becton, Dickinson and Company) to calculate the numbers of cells per culture (FIG. 67B).
as §1, with “20” for “50”, “FSTL1” for “FSTL1 (R&D Systems, Inc.)”, “(#5-2, #5-8, or #6-55)” for “(the same clones as in Example 6)”, “68B).” for “67B).”
as §1, with “FSTL1” for “FSTL1 (R&D Systems, Inc.)”, “(#5-2, #5-3, #6-55, #7-34, #8-1, #8-4, #8-7, or #8-8)” for “(the same clones as in Example 6)”, “culture.” for “culture (FIG. 67B).”
as §1, with “FSTL1” for “FSTL1 (R&D Systems, Inc.)”, “(#6-55)” for “(the same clones as in Example 6)”, “culture.” for “culture (FIG. 67B).”

[1] = Example 7, antibody 10 μg/mL, 3 days
[2] = Example 10, antibody 10 μg/mL, 3 days, including newly obtained clones

inhibitory activity against the expansion of RANKL-positive cells and CCR2-positive cells [1]	Molecule	inhibitory activity against the expansion of RANKL-positive cells and CCR2-positive cells [2]	other results
higher inhibitory activity	#5-3: chicken-mouse chimeric anti-FSTL1 antibody clone; variable regions SEQ ID NO: 767 (light), 769 (heavy) (antibody, V domains shown, mouse constant regions) VH: AVTLDESGGGLQTPGGALSLVCKGSGFSFSSFNMFWVRQAPGKGLEWVAGIGKDGVPKYGAAVDGRATISKDNGQSTMRLQLNNLRAEDTGTYFCAKAAGGCSYDWCGIYAGDIDTWGHGTEVIVSS VL: ASTQPSSVSANPGETVKITCSGGSGYYYGWYQQKSPGSVPVTVIYNNNNRPSDIPSRFSGSKSGSTGTLTITGVRAEDEAVYYCGGYDNSGTGIFGAGTTLTVL		
higher inhibitory activity	#5-8: chicken-mouse chimeric anti-FSTL1 antibody clone; variable regions SEQ ID NO: 771 (light), 773 (heavy) (antibody, V domains shown, mouse constant regions) VH: AVTLDESGGGLQTPGGGLSLVCKGSGFTFSSFNMFWVRQAPGKGLEWVAGIGKDGVPKYGTAVDGRATISKDNGQSTMRLQLNNLRAEDTGTYFCAKAAGGCSYDWCGIYTGDIDTWGHGTEVIVSS VL: ASTQPSSVSANPGEAVKITCSGGSGSYYGWYQQKSPGSAPVTVIYNNNQRPSDIPSRFSGSKSGSTATLTITGVQAEDEAVYFCGGYDSSTGHGGIFGAGTTLTVL		
	#8-7: chicken-mouse chimeric anti-FSTL1 antibody clone; variable regions SEQ ID NO: 799 (light), 801 (heavy) (antibody, V domains shown, mouse constant regions) VH: AVTLDESGGGLQTPGGGLSLVCKGSGFTFSSFNMFWVRQAPGKGLEWVAGIGKDGVPKYGAAVDGRATISKDNGQSTLRLQLNNLRAEDTGTYFCAKAAGGCSYDWCGIYAGDIDTWGHGTEVIVSS VL: ASTQPSSVSANPGEAVKITCSGGSGSYYGWYQQKSPGSAPVTVIYNNNQRPSDIPSRFSGSKSGSTATLTITGVQAEDEAVYFCGGYDSSTGHGGIFGAGTTLTVL	higher inhibitory activity; also recorded: high inhibitory activity	
	#8-4: chicken-mouse chimeric anti-FSTL1 antibody clone; variable regions SEQ ID NO: 795 (light), 797 (heavy) (antibody, V domains shown, mouse constant regions) VH: AVTLDESGGGLQTPGGGLSLVCKGSGFTLSSFNMFWVRQAPGKGLEWVAGVGKDGGTAYGAAVDGRATISRDSGQSTVRLQLNNLRAEDTGTYFCAKAAGGCSYSWCGAYVGDLDAWGHGTEVIVSS VL: ASSQPSSVSANPGETVKITCSGGSGYYYGWYQQKSPGSAPVTVIYNNDNKPSDIPSRFSGSKSGSTGTLTITGVQVEDEAVYFCGGYDNSGTGIFGAGTTLTVL	higher inhibitory activity; also recorded: high inhibitory activity	
	#6-55: chicken-mouse chimeric anti-FSTL1 antibody clone; variable regions SEQ ID NO: 783 (light), 785 (heavy) (antibody, V domains shown, mouse constant regions) VH: AVTLDESGGGLQTPGGALSLVCKGSGFTFTSVTMQWVRQAPGKGLEWVASVCSGSSTYYAPAVKGRATISRDNGQSTVRLQLSNLRPEDTGTYYCAKIAGRARWSCTSAAYNIDAWGHGTEVIVSS VL: ASTQPSSVSAIPGETVKITCSGGGNNYGWYQQRSPGSAPVTVIYYNDNRPSNIPSRFSGSTSGSTSTLTITGVQADDEAIYYCGSWDSNTDSGIFGAGTTLTVL	higher inhibitory activity; also recorded: high inhibitory activity	inhibition of cell induction of RANKL-positive cells and CCR2-positive cells (dose dependence test) (Example 11, figure legend): strongly inhibited the cell induction of both RANKL-positive cells and CCR2-positive cells; inhibitory activity against the expansion of RANKL-positive cells and CCR2-positive cells (Example 11, all tested doses 5, 10 and 20 μg/mL, dose dependence not confirmed): ~100%
	#5-2: chicken-mouse chimeric anti-FSTL1 antibody clone; variable regions SEQ ID NO: 763 (light), 765 (heavy) (antibody, V domains shown, mouse constant regions) VH: AVTLDESGGGLQTPGGGLSLVCKGSGFTFSSFNMFWVRQAPGKGLEWVAGVGKDGGTGYGAAVDGRATISKDNGQSTLRLQLNNLRAEDTGTYYCAKAAGGCSYGWCGSYVGDIDAWGHGTEVIVSS VL: ASTQPSSVSANPGEAVKITCSGGSGSYYGWYQQKSPGSAPVTVIYNNNQRPSDIPSRFSGSKSGSTATLTITGVQAEDEAVYFCGGYDSSTGHGGIFGAGTTLTVL	higher inhibitory activity; also recorded: high inhibitory activity	
